Experimental data published in patent US11338018B2, “Adrenocorticotropic hormone-based pharmaceutical formulations and methods for fabricating and using thereof” (Harrow IP, LLC, priority 2016, dated 2022).

Test: Comparative potency (USP corticotropin units) to assess formulation shelf stability
Assay type: physicochemical
Set-up: key to Potency: “Failed” refers to the potency after the testing being outside of the USP Corticotropin Units 80-125% range required by the U.S. Pharmacopeia.; “Passed” refers to the potency after the testing being within the 80-125% range required by the U.S. Pharmacopeia
Procedure: The term “potency” is defined in accordance with the U.S. Pharmacopeia (USP) and refers to the quantity of an active pharmaceutical component in the composition. In accordance with the requirements of the USP, the potency that is required of the corticotropin compositions described below is not less than 80.0 percent and not more than 125.0 percent of the potency stated on the label in USP corticotropin units.
Several compositions were prepared according to the methods illustrated in Examples 1-3. Table 1 provides a comparison of their respective potencies for showing shelf stability. The terms “recombinant porcine” and “recombinant human” refer to synthetic ACTH having the same amino acid sequence as the naturally occurring polypeptide derived from pigs and humans, respectively. […] Unexpectedly, it was observed that addition of L-Methionine in combination with Mannitol improved the shelf stability of Corticotropin Active Pharmaceutical Ingredient. FIGS. 1-4 show potencies of various exemplary compositions from Day 0 to Day 365.

Sequence | Potency (Cysteine, 2 mg/mL, Mannitol 50 mg/mL, pH 4.5-6.5, after 60 days) | label amount remaining intact (Cysteine, 2 mg/mL, Mannitol 50 mg/mL, pH 4.5-6.5, day 90) | Potency (Methionine, 2 mg/mL, Mannitol 50 mg/mL, pH 4.5-6.5, stable after 180 days) | Potency (Cysteine, 1 mg/mL, Mannitol None, pH 4.5-6.5, after 30 days) | Potency (Cysteine, 2 mg/mL, Mannitol 50 mg/mL, pH 4.0-6.0, after 10 days, both accelerated (room temperature) and refrigerated conditions) | Potency (Cysteine, 2 mg/mL, Mannitol 50 mg/mL, pH 4.5-6.6, after 30 days) | Potency (Methionine, 2 mg/mL, Mannitol 50 mg/mL, pH 4.0-6.0, after 10 days, both accelerated (room temperature) and refrigerated conditions) | Potency (Methionine, 3 mg/mL + POLOXAMER 188, 3 mg/mL, Mannitol 50 mg/mL, pH 5.0-6.5, stable after 360 days) | Potency (Methionine, 3 mg/mL, Mannitol 50 mg/mL, pH 4.0-6.0, stable after 365 days)
SYSMEHFRWGKPVGKKRRPVKVYPNGAEDESAEAFPLEF [Recombinant human] | Failed after | ^3Followed by even more substantial failure by day 90 (when only about 16.9% of the label amount remaining intact). | Passed^4, (“Passed” refers to the potency after the testing being within the 80-125% range required by the U.S. Pharmacopeia.) |  |  |  |  |  | 
SYSMEHFRWGKPVGKKRRPVKVYPNGAEDELAEAFPLEF (Sythetic construct) [Synthetic porcine] |  |  |  | Failed^1 after | Failed after | Failed after | Failed after | Passed, (“Passed” refers to the potency after the testing being within the 80-125% range required by the U.S. Pharmacopeia.) | Passed, (“Passed” refers to the potency after the testing being within the 80-125% range required by the U.S. Pharmacopeia.)
